The subject of one assay is HUVECs. Nature of the assay: Trans-endothelial electrical resistance (TEER). Particulars: 4 μg/well, 250 nM S1P, 6 hour time point. Format: cell-based, human. As to the method:
FIG. 4. Human and Mouse ApoM-Fc-S1P enhanced endothelial Barrier Protection. Human ApoMFc-S1P (4 μg/well, 250 nM S1P), Mouse ApoMFc-S1P (4 μg/well, 250 nM S1P), or BSA-S1P (250 nM S1P; Positive Control) were analyzed using transepithelial/transendothelial electrical resistance (TEER). The results of TEER analysis of HUVECs at the 6 hour time point are shown. BSA-S1P is the well-established activator of the S1PR1 and it was tested whether Human ApoMFc-S1P, Mouse ApoMFc-S1P gave equivalent induction of receptor activation. All results are normalized to individual well baselines (baseline=1), expressed as the mean of triplicate wells, and Standard Deviation (S.D.) is expressed as gray vertical bars over the course of the data set. […]
0.1 ml of Human Umbilical Vascular Endothelial Cells (HUVECS; 200,000 cells/ml in EGM-2 culture medium, Lonza) were seeded into a 96 well electrical conductance chamber (ECIS Cultureware; Applied Biophysics, Inc) pre-coated with 1% Fibronectin resuspended in Saline. After overnight incubation at 37° C./5% CO2, the 96-well plate was placed on the ECIS reader (Applied Biophysics; Ztheta 96-well array station) and baseline resistance was established which represents the quality of Endothelial junction strength or Endothelial barrier function. […]

Assay [1] has as its target T1, S1P1 receptor (Homo sapiens, UniProt P21453).
T1 construct: expressed in transfected cells; host or cells: Human 293A cells, transient PEI transfection
Nature of the assay: Nanobit split luciferase assay, beta-arrestin coupling. Particulars: transfected 293A cells; 1000 nM-0.3 nM S1P. Type of assay: cell-based. The method, then:
(§1) FIGS. 5A-5B. Nanobit analysis of Human ApoMFc-S1P, Mouse ApoMFc-S1P, or BSA-S1P (Positive Control). […] BSA-S1P is the well-established activator of the S1PR1 and it was tested whether Human ApoMFc-S1P, Mouse ApoMFc-S1P gave equivalent induction of receptor activation. Data are the means of triplicate wells with the baseline (pre-stimulation) signal subtracted from the final luciferase signal and graphs are expressed with standard deviation.
(§2) The S1P receptors are members of the G-protein coupled receptor (GPCR) superfamily. Receptor activation is characterized by immediate activation of a G-protein complex (alpha-beta-gamma) that activates multiple intracellular signaling pathways and then secondary activation of coupling to the protein beta-arrestin, which may cause receptor internalization and desensitization as well as activation of other intracellular signaling pathways. […]
(§3) There are two general forms of this assay. […] Upon activation of the GPCR, the G-Protein alpha-beta-gamma complex […] and Luciferase activity may be detected by measuring emitted light in the presence of luciferase substrate (luciferin). […] It is notable that G-Protein assay results in decreased relative fluorescence with increased receptor activation, while the Beta-arrestin coupling assay results in increased relative fluorescence with increased receptor activation. […]
Target sequence in this assay (P21453 whole entry): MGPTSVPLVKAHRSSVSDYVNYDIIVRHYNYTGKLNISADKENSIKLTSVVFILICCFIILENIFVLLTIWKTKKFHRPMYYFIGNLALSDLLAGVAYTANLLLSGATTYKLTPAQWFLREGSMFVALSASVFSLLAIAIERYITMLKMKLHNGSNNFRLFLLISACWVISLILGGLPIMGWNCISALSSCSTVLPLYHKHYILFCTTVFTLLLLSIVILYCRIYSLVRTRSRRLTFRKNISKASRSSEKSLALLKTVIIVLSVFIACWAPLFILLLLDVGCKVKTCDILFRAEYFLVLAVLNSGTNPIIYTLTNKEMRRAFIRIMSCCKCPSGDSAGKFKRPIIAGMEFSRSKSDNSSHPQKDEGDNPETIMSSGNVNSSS
Target sequence in this assay (P49407 whole entry partner): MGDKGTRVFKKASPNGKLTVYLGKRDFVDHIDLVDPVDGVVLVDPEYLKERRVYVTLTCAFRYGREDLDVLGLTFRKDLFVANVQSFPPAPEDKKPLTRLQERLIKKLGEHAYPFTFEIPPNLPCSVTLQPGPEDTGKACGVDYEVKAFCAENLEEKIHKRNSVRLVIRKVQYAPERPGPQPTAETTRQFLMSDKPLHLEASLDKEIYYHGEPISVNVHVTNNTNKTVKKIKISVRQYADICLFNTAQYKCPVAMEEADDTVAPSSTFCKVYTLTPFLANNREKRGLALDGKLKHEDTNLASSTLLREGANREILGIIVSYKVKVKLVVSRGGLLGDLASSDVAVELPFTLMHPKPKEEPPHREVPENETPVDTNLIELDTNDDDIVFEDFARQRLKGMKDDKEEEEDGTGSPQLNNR

For assay [2], the target named is T1, S1P1 receptor. Nature of the assay: Nanobit split luciferase assay, Gi-alpha coupling. Type of assay: cell-based. Conditions: transfected 293A cells; 1000 nM-0.3 nM S1P. As to the method: as §1, §2, §3
Target sequence in this assay (P21453 whole entry): as the sequence (P21453 whole entry) above

Data on 1 substance can be found in patent US12415847B2, “ApoM-Fc fusion proteins for treating lung diseases” (Children's Medical Center Corporation, priority 2018, dated 2025).

“Human ApoMFc-S1P: Human ApoM-Human IgG1 Fc (hApoM-Fc) loaded with S1P”: the “endothelial barrier protection (TEER)” value in the assay with HUVECs is listed as “enhance endothelial Barrier Protection”. Moreover, the “activation of beta-arrestin coupling to the S1P1 receptor” value with S1P1 receptor [1] is “equivalently activates”. The “activation of Gi-alpha coupling to the S1P1 receptor” value with S1P1 receptor [2] was “equivalently activates”.
